In patent US20100160220A1 one finds YFP fluorescence intensity relative to WT TβRII (fold of WT TβRII-YFP1) and reduction of binding of PTH ligands versus vector control (cells overexpressing WT TβRII) data, which are given here for 2 substances.

In one assay the target is PTH1R-YFP2 (UniProt Q03431). The assay can be described thus: YFP protein-fragment complementation assay with PTH1R-YFP2 in living cells.
The target in assay [1] is PTH1R tagged with HA (human) (UniProt Q03431). Kind of assay: PTH ligand incubated with transfected cells for 15 seconds, plasma membrane isolated, bound ligand by Western blot. For orientation: A western blot detects proteins with antibodies after separation by electrophoresis.
Sequence of PTH1R tagged with HA (human) (Q03431 27-593): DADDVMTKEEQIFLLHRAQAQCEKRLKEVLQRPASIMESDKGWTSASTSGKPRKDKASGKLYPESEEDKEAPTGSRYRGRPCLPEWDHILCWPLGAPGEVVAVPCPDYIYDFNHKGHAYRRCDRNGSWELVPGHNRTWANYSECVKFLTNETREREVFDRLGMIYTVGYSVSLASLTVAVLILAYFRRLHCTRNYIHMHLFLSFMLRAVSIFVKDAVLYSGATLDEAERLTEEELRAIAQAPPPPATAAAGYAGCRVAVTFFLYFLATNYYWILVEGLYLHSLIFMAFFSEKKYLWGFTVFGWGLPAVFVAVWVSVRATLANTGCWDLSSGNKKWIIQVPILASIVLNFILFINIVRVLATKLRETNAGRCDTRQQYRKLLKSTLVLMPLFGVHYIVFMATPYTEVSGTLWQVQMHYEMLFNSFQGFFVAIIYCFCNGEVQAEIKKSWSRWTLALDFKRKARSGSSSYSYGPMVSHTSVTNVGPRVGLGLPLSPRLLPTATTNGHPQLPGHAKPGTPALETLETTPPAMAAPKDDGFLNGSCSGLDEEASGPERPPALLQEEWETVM

Sequence of PTH1R-YFP2 (Q03431 27-593): as above

Turning to “kinase dead TβRII (K277A)-YFP1 (from UniProt P37173 23-567) (receptor)”, the YFP fluorescence intensity relative to WT TβRII (fold of WT TβRII-YFP1) in the assay with PTH1R-YFP2 amounted to 0.167.
Turning to “PTH ligand (form not stated, Example 12) (from UniProt P01270 32-65)”, the reduction of binding of PTH ligands versus vector control (cells overexpressing WT TβRII) in assay [1] stood at 50%.
